# Results as given in publication PMC3753260, “High Yield Production of a Soluble Human Interleukin-3 Variant from E. coli with Wild-Type Bioactivity and Improved Radiolabeling Properties” (PLoS ONE, 2013).
# Tests used:
# [1] = target: T1, hIL-3Rα and hβc subunits co-expressed (hIL-3 receptor) (human, UniProt P26951 19-378; P32927 17-897); experiment: radioligand binding; ^125I-labelled hIL-3(13-125; W13Y) on COS cells transiently expressing IL-3 receptors; Scatchard analysis with EBDA-LIGAND software; details: one partner purified
# T1 construct: human interleukin-3 receptor α subunit, transiently co-expressed with βc on COS cells; human common β-subunit (βc) shared with the IL-5 and GM-CSF receptors, transiently co-expressed with IL-3Rα on COS cells; The two subunits were co-expressed on the same cells; also called IL-3Rα and βc; hIL-3 receptors; source: COS cells, transfected by electroporation (pSG5: IL-3Rα and pSG5: βc), on cells
# [2] = target: T2, human IL-3Rα subunit (human, UniProt P26951 19-378); experiment: as above; details: one partner purified
# T2 construct: human interleukin-3 receptor α subunit, transiently expressed on COS cells; also called hIL-3Rα; IL-3-specific α-subunit; source: COS cells, transfected by electroporation (pSG5: IL-3Rα), on cells
# T2 sequence (P26951 19-378): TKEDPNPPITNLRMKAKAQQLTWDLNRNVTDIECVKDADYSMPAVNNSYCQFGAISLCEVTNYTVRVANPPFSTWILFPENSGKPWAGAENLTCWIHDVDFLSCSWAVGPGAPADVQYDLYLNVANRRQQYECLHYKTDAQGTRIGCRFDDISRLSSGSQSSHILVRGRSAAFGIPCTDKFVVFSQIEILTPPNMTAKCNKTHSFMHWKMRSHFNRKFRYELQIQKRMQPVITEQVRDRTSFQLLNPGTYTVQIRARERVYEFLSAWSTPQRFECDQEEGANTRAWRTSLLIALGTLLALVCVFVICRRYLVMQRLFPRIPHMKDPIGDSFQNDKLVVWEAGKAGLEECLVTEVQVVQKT
# T1 sequence (P26951 19-378, chain 1 of 2): as the sequence (P26951 19-378) above
# T1 sequence (P32927 17-897, chain 2 of 2): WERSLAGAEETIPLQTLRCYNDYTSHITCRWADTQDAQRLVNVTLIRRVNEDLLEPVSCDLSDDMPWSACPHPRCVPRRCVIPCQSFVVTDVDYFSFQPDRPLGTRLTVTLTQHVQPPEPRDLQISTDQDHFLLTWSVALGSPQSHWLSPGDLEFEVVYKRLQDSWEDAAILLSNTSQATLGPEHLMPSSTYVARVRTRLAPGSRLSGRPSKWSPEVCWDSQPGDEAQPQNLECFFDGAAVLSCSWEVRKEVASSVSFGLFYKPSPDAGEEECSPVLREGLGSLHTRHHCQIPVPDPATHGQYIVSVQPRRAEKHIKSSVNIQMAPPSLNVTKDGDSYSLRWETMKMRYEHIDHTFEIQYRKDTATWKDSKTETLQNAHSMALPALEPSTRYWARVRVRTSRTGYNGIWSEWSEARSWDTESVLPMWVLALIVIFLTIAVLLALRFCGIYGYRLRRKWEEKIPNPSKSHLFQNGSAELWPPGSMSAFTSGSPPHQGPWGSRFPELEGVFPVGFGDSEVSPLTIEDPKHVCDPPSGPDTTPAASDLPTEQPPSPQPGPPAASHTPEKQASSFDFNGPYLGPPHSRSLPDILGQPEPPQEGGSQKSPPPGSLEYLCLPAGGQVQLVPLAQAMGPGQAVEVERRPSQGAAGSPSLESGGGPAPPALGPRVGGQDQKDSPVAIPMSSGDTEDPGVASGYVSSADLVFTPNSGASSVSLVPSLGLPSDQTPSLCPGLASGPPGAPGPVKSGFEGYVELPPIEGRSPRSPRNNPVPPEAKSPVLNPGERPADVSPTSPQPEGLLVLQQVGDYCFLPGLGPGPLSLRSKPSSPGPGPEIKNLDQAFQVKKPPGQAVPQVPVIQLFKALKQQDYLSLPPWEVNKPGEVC
binder,measurement,setting,value
"^125I-hIL-3(13-125; W13Y) (ligand, human, ^125I radio-iodinated (tyrosine labelling, Pierce Pre-Coated Iodination tubes / Iodogen), non-native N-terminal overhang left after TEV protease cleavage of the NusA-His6 tag (cloning artifact); human interleukin-3, four-helix bundle core, residues 13-125 with W13Y; numbers count on: the mature protein; Vector pETNusH HTb; also called hIL-3(W13Y); hIL-3 analog; source: E. coli BL21 CodonPlus (DE3)-RIPL, purified (Ni-NTA, TEV cleavage, SEC, in some cases RP-HPLC), then radio-iodinated; …) GAMGSYVNCSNMIDEIITHLKQPPLPLLDFNNLNGEDQDILMENNLRRPNLEAFNRAVKSLQNASAIESILKNLLPCLPLATAAPTRHPIHIKDGDWNEFRRKLTFYLKTLENAQAQQ",Kd,[1],0.456 nM
same,Kd,[2],143 nM
